# Assay results as given in patent US20240417485A1.
# What was measured:
# [1] = molecular target: human uPAR expressed on the cell surface (human) (UniProt Q03405); test: flow cytometry on 293T cells, isotype control (background)
# [2] = molecular target: human uPAR expressed on the cell surface (human) (UniProt Q03405); test: flow cytometry on 293T-uPAR cells, isotype control (background)
# [3] = molecular target: human uPAR expressed on the cell surface (human) (UniProt Q03405); test: flow cytometry on A375 cells, isotype control (background)
# Sequence of human uPAR expressed on the cell surface (human) (Q03405 23-305): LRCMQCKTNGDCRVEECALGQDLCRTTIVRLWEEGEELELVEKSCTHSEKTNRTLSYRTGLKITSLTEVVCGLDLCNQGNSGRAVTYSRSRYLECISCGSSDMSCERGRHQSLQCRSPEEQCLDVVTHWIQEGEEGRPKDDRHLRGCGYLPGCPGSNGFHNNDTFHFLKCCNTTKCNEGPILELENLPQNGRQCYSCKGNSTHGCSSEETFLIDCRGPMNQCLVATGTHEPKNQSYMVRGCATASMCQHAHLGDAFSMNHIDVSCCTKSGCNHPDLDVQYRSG
substance,measurement,setting,value
isotype antibody,MFI,[1],62
same,MFI,[2],46.4
same,MFI,[3],71.3
